The stoichiometry N is the number of molecules, sites or subunits per partner or assembly.

Data set [1] deals with the molecule itself. Briefly: negative stain transmission electron microscopy; ANGPTL3, ANGPTL8 and anti-ANGPTL3/8 antibody Fab cotransfected in CHO cells; sample diluted 100-fold into TBS, uranyl formate stain; 2D class averaging in three rounds.
In data set [2] the target is T1, ANGPTL8 cotransfected with ANGPTL3 and the anti-ANGPTL3/8 antibody Fab in CHO cells (UniProt Q6UXH0 22-198).
T1 construct: angiopoietin-like protein 8 (ANGPTL8); Used only for negative stain TEM; source: CHO cells, cotransfected with ANGPTL3 and an anti-ANGPTL3/8 antibody Fab
T1 sequence (looked up): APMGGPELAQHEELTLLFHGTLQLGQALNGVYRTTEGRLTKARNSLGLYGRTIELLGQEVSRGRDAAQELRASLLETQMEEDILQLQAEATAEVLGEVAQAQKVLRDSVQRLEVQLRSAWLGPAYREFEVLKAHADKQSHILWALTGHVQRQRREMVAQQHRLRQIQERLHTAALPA
Described as above.

Another data set has as its target T2, human ANGPTL3 (human, UniProt Q9Y5C1 17-460).
T2 construct: angiopoietin-like protein 3 (ANGPTL3), human; 460-amino acid protein, CCD 17-210, linker, FLD 241-460; also called free ANGPTL3; ANGPTL3 alone; source: generated as previously described (22, 44)
T2 sequence (looked up): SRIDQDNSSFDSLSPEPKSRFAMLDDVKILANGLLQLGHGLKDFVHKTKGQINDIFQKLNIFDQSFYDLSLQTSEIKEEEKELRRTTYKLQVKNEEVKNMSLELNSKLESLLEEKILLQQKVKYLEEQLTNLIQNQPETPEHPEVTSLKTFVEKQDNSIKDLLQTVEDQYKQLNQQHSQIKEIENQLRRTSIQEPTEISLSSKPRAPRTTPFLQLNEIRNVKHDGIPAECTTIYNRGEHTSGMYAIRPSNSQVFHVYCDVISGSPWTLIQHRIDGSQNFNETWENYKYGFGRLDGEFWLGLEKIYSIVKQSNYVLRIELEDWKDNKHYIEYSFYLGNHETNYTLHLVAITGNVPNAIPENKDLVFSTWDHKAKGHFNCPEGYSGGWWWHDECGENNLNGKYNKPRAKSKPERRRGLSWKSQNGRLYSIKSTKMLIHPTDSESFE
Kind of data set: HDX-MS; purified ANGPTL3/8 complex (12 uM) against ANGPTL3 alone (15 uM) and ANGPTL8 alone (15 uM); pH 7.4, 10 mM sodium phosphate, 150 mM NaCl, 15 C; 10 s, 2 min, 10 min, 60 min; triplicate. Conditions: both partners purified.

B1: ANGPTL3 cotransfected with ANGPTL8 and the anti-ANGPTL3/8 antibody Fab in CHO cells (natural protein, UniProt Q9Y5C1 17-460, looked up)
chain: SRIDQDNSSFDSLSPEPKSRFAMLDDVKILANGLLQLGHGLKDFVHKTKGQINDIFQKLNIFDQSFYDLSLQTSEIKEEEKELRRTTYKLQVKNEEVKNMSLELNSKLESLLEEKILLQQKVKYLEEQLTNLIQNQPETPEHPEVTSLKTFVEKQDNSIKDLLQTVEDQYKQLNQQHSQIKEIENQLRRTSIQEPTEISLSSKPRAPRTTPFLQLNEIRNVKHDGIPAECTTIYNRGEHTSGMYAIRPSNSQVFHVYCDVISGSPWTLIQHRIDGSQNFNETWENYKYGFGRLDGEFWLGLEKIYSIVKQSNYVLRIELEDWKDNKHYIEYSFYLGNHETNYTLHLVAITGNVPNAIPENKDLVFSTWDHKAKGHFNCPEGYSGGWWWHDECGENNLNGKYNKPRAKSKPERRRGLSWKSQNGRLYSIKSTKMLIHPTDSESFE
notes: angiopoietin-like protein 3 (ANGPTL3); Used only for negative stain TEM; source: CHO cells, cotransfected with ANGPTL8 and an anti-ANGPTL3/8 antibody Fab
With B1, the entries for the “stoichiometry N” value in data set [1] and in data set [2] were 3 and 3 ANGPTL3 per ANGPTL8, respectively.

B2: human ANGPTL8 as it stands in the ANGPTL3/8 complex (HSA fusion partner removed) (natural protein, UniProt Q6UXH0 22-198, looked up)
chain: APMGGPELAQHEELTLLFHGTLQLGQALNGVYRTTEGRLTKARNSLGLYGRTIELLGQEVSRGRDAAQELRASLLETQMEEDILQLQAEATAEVLGEVAQAQKVLRDSVQRLEVQLRSAWLGPAYREFEVLKAHADKQSHILWALTGHVQRQRREMVAQQHRLRQIQERLHTAALPA
notes: angiopoietin-like protein 8 (ANGPTL8), human; 198-amino acid protein; same expression construct as HIS-HSA-ANGPTL8; also called ANGPTL8 complexed with ANGPTL3; source: part of the ANGPTL3/8 complex generated as previously described (22, 44); HSA fusion partner removed by proteolysis; not shown: His, N-terminal, cleaved; HSA, N-terminal, cleaved
With B2, the binding result with human ANGPTL3 is listed as “binds”.

These data come from PMC9036128, “An anti-ANGPTL3/8 antibody decreases circulating triglycerides by binding to a LPL-inhibitory leucine zipper-like motif” (Journal of Lipid Research, 2022).
